Measurements: PMC4022893

Columns and labels:
[1] = 125I-FSH binding to CHO-hFSHR membranes ± Compound 5; conditions: glycan lost; control: glycosylated FSH (about 3-fold more binding with Compound 5)
[2] = molecular target: FSHR of the PathHunter FSHR β-arrestin assay cells (UniProt P23945); assay: split reporter (BiFC, NanoBiT); PathHunter FSHR β-arrestin recruitment assay (DiscoveRx 93-0517C2) in CHO cells; cells stimulated with FSH, Compound 5, both, or the βT60E mutant; recruited β-arrestin normalized to 100% for the maximum response of FSH
Chain of FSHR of the PathHunter FSHR β-arrestin assay cells (P23945 18-695): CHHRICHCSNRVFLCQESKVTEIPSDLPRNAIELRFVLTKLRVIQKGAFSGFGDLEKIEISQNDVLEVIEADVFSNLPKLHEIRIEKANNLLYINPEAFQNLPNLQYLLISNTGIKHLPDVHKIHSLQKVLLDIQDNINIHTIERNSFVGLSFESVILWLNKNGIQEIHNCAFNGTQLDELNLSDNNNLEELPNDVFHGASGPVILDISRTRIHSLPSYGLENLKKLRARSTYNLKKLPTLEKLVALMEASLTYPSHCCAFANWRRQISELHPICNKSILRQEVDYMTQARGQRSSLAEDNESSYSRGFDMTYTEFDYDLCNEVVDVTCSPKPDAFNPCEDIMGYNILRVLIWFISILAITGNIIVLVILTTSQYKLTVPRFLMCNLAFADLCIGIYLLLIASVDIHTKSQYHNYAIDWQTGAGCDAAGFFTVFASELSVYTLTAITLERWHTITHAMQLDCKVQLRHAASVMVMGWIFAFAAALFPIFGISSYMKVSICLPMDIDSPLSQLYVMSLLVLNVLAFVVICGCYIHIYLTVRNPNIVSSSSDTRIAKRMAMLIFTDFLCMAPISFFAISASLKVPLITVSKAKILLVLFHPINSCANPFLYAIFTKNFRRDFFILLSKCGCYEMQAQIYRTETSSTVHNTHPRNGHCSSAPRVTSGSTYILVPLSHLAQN

Chain of β-arrestin of the PathHunter FSHR β-arrestin assay cells (P32121 whole entry): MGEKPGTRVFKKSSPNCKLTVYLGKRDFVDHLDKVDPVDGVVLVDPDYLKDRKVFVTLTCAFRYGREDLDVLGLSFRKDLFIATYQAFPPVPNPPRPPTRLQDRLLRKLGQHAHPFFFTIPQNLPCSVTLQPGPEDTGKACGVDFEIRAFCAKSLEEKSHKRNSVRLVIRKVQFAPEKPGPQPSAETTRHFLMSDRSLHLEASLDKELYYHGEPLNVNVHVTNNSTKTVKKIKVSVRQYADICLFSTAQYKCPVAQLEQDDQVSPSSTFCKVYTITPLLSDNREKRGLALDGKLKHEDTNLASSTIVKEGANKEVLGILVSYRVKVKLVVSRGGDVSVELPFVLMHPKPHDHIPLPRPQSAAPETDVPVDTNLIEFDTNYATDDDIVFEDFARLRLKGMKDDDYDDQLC
Chain of FSH α-subunit: αN52D (chain, as listed by the source N52D): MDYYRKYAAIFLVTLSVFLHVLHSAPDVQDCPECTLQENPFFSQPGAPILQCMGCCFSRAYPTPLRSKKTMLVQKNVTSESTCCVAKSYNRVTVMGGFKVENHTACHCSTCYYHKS

β-arrestin recruited with Compound 5 plus FSH at EC100, percent of the maximum with FSH alone [2] [%]	β-arrestin recruited with FSH plus a high concentration of Compound 5, percent of the maximum with FSH alone [2] [%]	Substance	other: Compound 5 enhancement of FSHR binding [1]
–	–	FSH α-subunit: αN52D	decreases
280	280	β-arrestin of the PathHunter FSHR β-arrestin assay cells (from UniProt P32121 1-409) (natural protein)	–
